Consider six molecules from article PMC7585440, “Sclerostin inhibits Wnt signaling through tandem interaction with two LRP6 ectodomains” (Nature Communications, 2020).

What all share (conditions): both partners purified
Assay [1] concerns the target T1, human LRP6 E1E2 (P21-P630) with a C-terminal 10x His tag (human, UniProt O75581 21-630, labeled with the dye NT-647 in the MST experiments (legends: Cy-5 dye-labeled)).
T1 construct: low-density lipoprotein receptor-related protein 6 (LRP6), human, ectodomains E1 and E2, residues P21-P630; also called LPR6 E1E2; source: High Five insect cells, secreted, purified (Ni-NTA, HiTrapQ, SEC); for the crystal co-expressed with SOSTtr177
T1 sequence (looked up): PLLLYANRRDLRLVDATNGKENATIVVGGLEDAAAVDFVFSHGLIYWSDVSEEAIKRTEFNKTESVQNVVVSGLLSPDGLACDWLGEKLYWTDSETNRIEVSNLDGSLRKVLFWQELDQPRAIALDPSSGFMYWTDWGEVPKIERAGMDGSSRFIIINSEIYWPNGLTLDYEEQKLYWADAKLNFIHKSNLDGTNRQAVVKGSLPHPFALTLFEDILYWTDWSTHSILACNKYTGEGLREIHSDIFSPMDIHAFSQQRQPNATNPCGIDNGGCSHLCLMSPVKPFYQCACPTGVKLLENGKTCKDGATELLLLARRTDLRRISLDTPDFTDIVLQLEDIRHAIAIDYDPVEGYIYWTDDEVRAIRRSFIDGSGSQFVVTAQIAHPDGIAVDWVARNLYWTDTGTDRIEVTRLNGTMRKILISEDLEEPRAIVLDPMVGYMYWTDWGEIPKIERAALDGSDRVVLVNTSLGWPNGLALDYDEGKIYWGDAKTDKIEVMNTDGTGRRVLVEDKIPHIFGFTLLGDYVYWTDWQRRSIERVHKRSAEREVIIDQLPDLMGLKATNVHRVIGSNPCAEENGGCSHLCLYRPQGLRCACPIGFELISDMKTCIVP
The assay can be described thus: MST; labeled LRP6 E1E2 or LRP6 E1 (~5 nM) titrated with unlabeled Smo-SOST, MBP-SOST, tags or peptides; 20 mM Tris-Cl pH 7.0, 200 mM NaCl, 0.5 mg/ml BSA, 0.05% Tween 20; 22 °C; three independent experiments.

Assay [2] deals with T2, human LRP6 E1 with a C-terminal 10× His tag, labeled with the dye NT-647 (human, dye NT-647 (Monolith NT Protein Labeling kit)).
T2 chain: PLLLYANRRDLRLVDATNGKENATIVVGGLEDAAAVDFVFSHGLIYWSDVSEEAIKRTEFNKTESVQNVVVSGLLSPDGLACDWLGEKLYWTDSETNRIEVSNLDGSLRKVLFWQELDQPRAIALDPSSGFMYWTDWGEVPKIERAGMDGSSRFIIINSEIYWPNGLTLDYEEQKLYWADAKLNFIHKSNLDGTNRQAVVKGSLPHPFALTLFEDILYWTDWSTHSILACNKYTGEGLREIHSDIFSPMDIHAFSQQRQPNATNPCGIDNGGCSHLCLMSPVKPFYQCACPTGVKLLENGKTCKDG
The assay can be described thus: MST; LRP6 E1E2 or E1 labeled with NT-647 at ~5 nM, unlabeled SOST proteins or peptides titrated; 20 mM Tris-Cl pH 7.0, 200 mM NaCl, 0.5 mg/ml BSA, 0.05% Tween 20; 22 °C; Monolith NT.115 Pico.

Assay [3] deals with T3, human LRP6 E1E2 with a C-terminal 10× His tag, labeled with the dye NT-647 (human, UniProt O75581 21-630, dye NT-647 (Monolith NT Protein Labeling kit)).
T3 construct: Low-density lipoprotein receptor-related protein 6 (LRP6), human, ectodomains E1 and E2; the limits P21-P630 are printed for the co-expression construct; the MST construct was cloned into another vector (pAcGP67A); also called Labeled LRP6 E1E2; source: High Five insect cells (pAcGP67A), purified (Ni-NTA, HiTrapQ, SEC), no tag cleavage; not shown: His10, C-terminal, kept
T3 sequence (looked up): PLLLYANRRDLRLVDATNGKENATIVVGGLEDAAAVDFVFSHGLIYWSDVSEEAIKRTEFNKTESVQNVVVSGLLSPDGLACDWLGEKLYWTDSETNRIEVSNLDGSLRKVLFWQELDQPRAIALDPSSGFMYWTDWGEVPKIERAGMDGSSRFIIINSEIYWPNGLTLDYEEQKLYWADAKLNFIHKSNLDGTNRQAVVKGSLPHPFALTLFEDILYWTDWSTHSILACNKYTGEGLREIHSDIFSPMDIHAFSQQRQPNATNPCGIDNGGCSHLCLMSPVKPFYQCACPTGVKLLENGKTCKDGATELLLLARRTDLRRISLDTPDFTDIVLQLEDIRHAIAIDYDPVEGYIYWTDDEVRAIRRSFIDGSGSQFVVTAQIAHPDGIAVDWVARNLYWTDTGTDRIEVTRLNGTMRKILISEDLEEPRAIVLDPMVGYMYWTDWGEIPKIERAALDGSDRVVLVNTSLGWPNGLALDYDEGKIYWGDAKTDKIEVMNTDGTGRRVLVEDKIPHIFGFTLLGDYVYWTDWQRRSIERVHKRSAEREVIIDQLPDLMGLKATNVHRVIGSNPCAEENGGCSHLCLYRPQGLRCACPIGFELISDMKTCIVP
The description is as above.

Assay [4] deals with T4, human LRP6 E1 (P21-D325) with a C-terminal His tag (human, UniProt O75581 21-325, labeled with the dye NT-647 in the MST experiments (legends: Cy-5 dye-labeled)).
T4 construct: low-density lipoprotein receptor-related protein 6 (LRP6), human, ectodomain E1, residues P21-D325; The methods name a 10x His tag; also called LPR6 E1; source: High Five insect cells, secreted, purified (Ni-NTA, HiTrapQ, SEC)
T4 sequence (looked up): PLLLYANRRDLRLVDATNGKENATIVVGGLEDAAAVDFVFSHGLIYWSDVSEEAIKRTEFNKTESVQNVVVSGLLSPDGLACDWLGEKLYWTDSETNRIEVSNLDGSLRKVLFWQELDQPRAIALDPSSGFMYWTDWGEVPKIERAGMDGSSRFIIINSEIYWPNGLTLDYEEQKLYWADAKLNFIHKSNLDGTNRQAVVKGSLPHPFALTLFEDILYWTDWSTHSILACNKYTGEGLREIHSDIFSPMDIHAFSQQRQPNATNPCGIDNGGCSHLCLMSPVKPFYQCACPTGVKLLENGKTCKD
In words: MST; labeled LRP6 E1E2 or LRP6 E1 (~5 nM) titrated with unlabeled Smo-SOST, MBP-SOST, tags or peptides; 20 mM Tris-Cl pH 7.0, 200 mM NaCl, 0.5 mg/ml BSA, 0.05% Tween 20; 22 °C; three independent experiments.

Bridges are numbered along the chain shown (N, C = ends). Where no end group is shown, it is not given here.

B1: human SOSTtr187 (Q24-A187) with an N-terminal His6-SUMO tag (domain or fragment)
chain: QGWQAFKNDATEIIPELGEYPEPPPELENNKTMNRAENGGRPPHHPFETKDVSEYSCRELHFTRYVTDGPCRSAKPVTELVCSGQCGPARLLPNAIGRGKWWRPSGPDFRCIPDRYRAQRVQLLCPGGEAPRARKVRLVASCKCKRLTRFHNQSELKDFGTEAA
notes: sclerostin (SOST), human, residues Q24-A187; also called Smo-SOSTtr187; source: High Five insect cells, secreted, purified; tag not cleaved; not shown: His6, N-terminal, kept; SUMO, N-terminal, kept
One may read the Kd as the constant that tells how readily two partners part at equilibrium. Read a high Kd as a looser complex. Consider B1, for which the equilibrium dissociation constant (Kd) in assay [1] was 600 nM.

B2: disulfide-bonded, circularized SOST loop 2 peptide (CLLPNAIGRGKWGC) (peptide)
peptide: CLLPNAIGRGKWGC
modifications: disulfide 1-14 (inferred)
notes: first cysteine of the printed peptide, for the ring-closing disulfide; last two residues of the printed peptide, with the second cysteine of the disulfide; source: synthetic peptide (Peptron)
Regarding B2, the dissociation constant Kd in assay [2] stood at 5200 nM; in assay [3], 5500 nM.

B3: human SOSTtr204 (Q24-A204) with an N-terminal His6-SUMO tag (domain or fragment)
chain: QGWQAFKNDATEIIPELGEYPEPPPELENNKTMNRAENGGRPPHHPFETKDVSEYSCRELHFTRYVTDGPCRSAKPVTELVCSGQCGPARLLPNAIGRGKWWRPSGPDFRCIPDRYRAQRVQLLCPGGEAPRARKVRLVASCKCKRLTRFHNQSELKDFGTEAARPQKGRKPRPRARSAKA
notes: sclerostin (SOST), human, residues Q24-A204; also called Smo-SOSTtr204; source: High Five insect cells, secreted, purified; tag not cleaved; not shown: His6, N-terminal, kept; SUMO, N-terminal, kept
B3 gave a dissociation constant (Kd) in assay [1] of 290 nM.

B4: human SOSTtr178 (Q24-E178) with an N-terminal His6-SUMO tag (domain or fragment)
chain: QGWQAFKNDATEIIPELGEYPEPPPELENNKTMNRAENGGRPPHHPFETKDVSEYSCRELHFTRYVTDGPCRSAKPVTELVCSGQCGPARLLPNAIGRGKWWRPSGPDFRCIPDRYRAQRVQLLCPGGEAPRARKVRLVASCKCKRLTRFHNQSE
notes: sclerostin (SOST), human, residues Q24-E178; also called Smo-SOSTtr178; source: High Five insect cells, secreted, purified; tag not cleaved; not shown: His6, N-terminal, kept; SUMO, N-terminal, kept
In assay [1], B4 returned a Kd of 680 nM.

B5: human WT SOST (Q24-Y213) with an N-terminal His6-SUMO tag (natural protein)
chain: QGWQAFKNDATEIIPELGEYPEPPPELENNKTMNRAENGGRPPHHPFETKDVSEYSCRELHFTRYVTDGPCRSAKPVTELVCSGQCGPARLLPNAIGRGKWWRPSGPDFRCIPDRYRAQRVQLLCPGGEAPRARKVRLVASCKCKRLTRFHNQSELKDFGTEAARPQKGRKPRPRARSAKANQAELENAY
notes: sclerostin (SOST), human, residues Q24-Y213; also called Smo-SOST; Smo-SOST WT; source: High Five insect cells, secreted, purified; tag not cleaved; not shown: His6, N-terminal, kept; SUMO, N-terminal, kept
On to B5, for which, in assay [4], the affinity, expressed as Kd, was 780 nM.

B6: human WT SOST (Q24-Y213) with an N-terminal His6-MBP tag (natural protein)
chain: QGWQAFKNDATEIIPELGEYPEPPPELENNKTMNRAENGGRPPHHPFETKDVSEYSCRELHFTRYVTDGPCRSAKPVTELVCSGQCGPARLLPNAIGRGKWWRPSGPDFRCIPDRYRAQRVQLLCPGGEAPRARKVRLVASCKCKRLTRFHNQSELKDFGTEAARPQKGRKPRPRARSAKANQAELENAY
notes: sclerostin (SOST), human, residues Q24-Y213; also called MBP-SOST; MBP-SOST WT; source: High Five insect cells, secreted, purified; tag not cleaved; not shown: His6, N-terminal, kept; MBP, N-terminal, kept
B6 returned a dissociation constant Kd in assay [1] of 170 nM.
